This passage reports IC50 results from patent publication US20240254204A1 (published 2024).

Numbering of substitutions follows the chain as printed.

In assay [1] the target is SARS-CoV-2.
The target in assay [2] is SARS-CoV-2 Delta.
For assay [3], the target named is Bat CoV RsSHC014 (SC1r-CoV RsSHC014).
Assay [4] deals with Pangolin CoV GD-1.
Assay [5] has as its target Bat CoV BANAL-236.
The target of assay [6] is Bat CoV Rs2018B (SC1r-CoV Rs2018B).
In assay [7] the target is SARS-CoV-2 Lambda (SARS-CoV-2 Lambda).
Assay [8] deals with SARS-CoV-2 Delta Plus.
Assay [9] deals with SARS-CoV-1.
In assay [10] the target is Bat CoV WIV-1 (SC1r-CoV WIV-1).
Assay [11] concerns the target Pangolin CoV GX-.
Assay [12] has as its target Bat CoV LYRa11.
Assay [13] concerns the target SARS-CoV-2 Mu.
The target of assay [14] is Bat CoV BANAL-52.
For assay [15], the target named is SARS-COV-2 B.1.351 RBD (SARS-CoV-2 B.1.351 (Beta)).
Assay [16] has as its target SARS-COV-2 Omicron BA.2 RBD (SARS-CoV-2 Omicron BA.2).
In assay [17] the target is SARS-COV-2 Omicron BA.1 RBD (SARS-CoV-2 Omicron BA.1).
Assay [18] concerns the target SC2r-COV RaTG13 RBD (SC2r-CoV RaTG13 (bat)).
The target in assay [19] is SARS-CoV-2 Gamma.

B1: F5 (antibody, V domains shown)
VH: QVQLQESGPGLVKPSETLSLTCTVSGGSIIGYYWSWIRQPPGKGLEWIGYIYFSANTNYNPSLKSRVTMSVDMSKKQFSLKLRSVTAADTAVYYCARGGGYLETGPLDFWGQGILVTVSS
VL: DIVMTQSPLSLPVTPGEPASISCRSSQSLMQLNGYNYLAWYLQRPGQSPQLLIYLGSTRASGVPDRFSGSGSGTDFTLKITRVEAEDVGVYYCMQGLQIPGTFGQGTRLEIK
Take B1: the IC50 in assay [1] amounted to 0.03 µg/mL; in [2], 0.034 µg/mL; in assay [3], 0.012 µg/mL; in assay [4] it was 0.019 µg/mL; in assay [5], 0.033 µg/mL; in assay [6], 0.015 µg/mL. In addition, the IC50 in assay [7] amounted to 0.014 µg/mL; in [8] it was 0.03 µg/mL; in [9] it was 0.019 µg/mL; in assay [10] it was 0.012 µg/mL; in assay [11], 0.025 µg/mL; in assay [12], 0.01 µg/mL. For the same molecule, the half-maximal inhibitory concentration (IC50) in [13] was determined as 0.024 µg/mL; in assay [14], 0.027 µg/mL.

B2: Antibody 11 (SS6V11-E7) (antibody, V domains shown)
VH: QVQLQESGPGLVKPSETLSLTCTVSGGFIGPHYWSWVRQPPGKGLEWIGYIYISGSTNYNPSLKSRLTISVDMSKSQFSLTLSSATAADTAVYYCARGGGYLETGPFEYWGQGTLVTVSS
VL: B1 VL with M30L, L32N, R44K, G56S, T81S, G96S
As to B2, the IC50 is 0.044 µg/mL in [15] and 0.222 µg/mL in assay [16].

B3: Antibody 20 (SS6V20-F5) (antibody, V domains shown)
VH: B1 VH
VL: B1 VL
B3: the IC50 in assay [17] was determined as 0.072 µg/mL; in [16], 0.246 µg/mL; in assay [18], 0.015 µg/mL.

B4: F1 (antibody, V domains shown)
VH: QVQLQESGPGLVKPSETLSLTCSVSGVSILGSYWGWIRQPPGTGLQWIGYIYFSENTNYNPSLQSRVTMSLDTSKNLLSLKLSSVTAADTAVYYCARGGGYLETGPFDSWGQGTLVTVSS
VL: B1 VL with S28G, M30V, L32S, R44K, T58N, T81S, I99T
B4: the IC50 came out at 0.12 µg/mL in assay [2]; 0.082 µg/mL in assay [19]; 0.112 µg/mL in assay [8]; 0.073 µg/mL in assay [9]; 0.037 µg/mL in assay [10]; 0.031 µg/mL in assay [12].

B5: E7 (antibody, V domains shown)
VH: B2 VH
VL: B1 VL with M30L, L32N, R44K, G56S, T81S, G96S
As to B5, the IC50 was found to be 0.097 µg/mL in assay [2]; 0.022 µg/mL in assay [3]; 0.073 µg/mL in [4]; 0.032 µg/mL in assay [6]; 0.032 µg/mL in assay [7]; 0.03 µg/mL in [10]. Further, the IC50 in assay [11] turned out to be 0.039 µg/mL; in assay [12], 0.021 µg/mL.

B6: Antibody 13 (SS6V13-F1) (antibody, V domains shown)
VH: B4 VH
VL: B1 VL with S28G, M30V, L32S, R44K, T58N, T81S, I99T
As to B6, the IC50 in assay [15] came out at 0.087 µg/mL.
